In patent publication US7745192:

Molecular target: human fibrinogen (UniProt P02671)

thrombin resulting from action of Brown snake venom protease
SDS PAGE banding patterns of washed fibrin clots: thrombin resulting from action of Brown snake venom protease converts fibrinogen to fibrin in a similar manner as normal α-thrombin
